The results in this text go back to PMC3289903.

The assay concerns the target recombinant Tp0956 (non-lipidated, residues 2-302) (Treponema pallidum). The experiment in a line: AUC.

recombinant Tp0956 (non-lipidated, residues 2-302) (Treponema pallidum), sequence (O83922 23-323 limits assumed): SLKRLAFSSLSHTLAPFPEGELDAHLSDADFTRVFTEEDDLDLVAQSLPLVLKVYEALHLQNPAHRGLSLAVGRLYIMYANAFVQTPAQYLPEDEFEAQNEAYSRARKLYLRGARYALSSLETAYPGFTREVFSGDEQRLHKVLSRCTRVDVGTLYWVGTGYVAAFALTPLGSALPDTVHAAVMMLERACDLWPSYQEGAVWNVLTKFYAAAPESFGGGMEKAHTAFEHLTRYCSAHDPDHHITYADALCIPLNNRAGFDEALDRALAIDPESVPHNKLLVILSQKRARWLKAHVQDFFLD

“recombinant Tp0957 (non-lipidated, residues 7-328) (natural protein)”: the Kd(1), first binding event (macroscopic) came out at 60 nM; the cooperativity factor α2 (second binding event) worked out at 1.5; the cooperativity factor α3 (third binding event) was 0.34.
